Data set [1] is described as follows: Azi photo-cross-linking in HEK293T, anti-Flag blot. The note with it: glycan lost; control: PD-L1-Azi without NQ mutations.
Data set [2] is described as follows: Azi photo-cross-linking, immunoblot. The note with it: glycan lost; control: untreated PD-L1-V76Azi cells. (In general: In western blotting, separated proteins are transferred to a membrane and probed.)

On to PD-L1: 4NQ, for which, in data set [1], the oligomerisation entry was “decreases”. Consider PD-L1: 5 µM tunicamycin, 24 h, for which the oligomerisation result in data set [2] is “decreases”.

The values are drawn from publication PMC9427764.
